Drawing on patent publication CN112375146A, this text covers Kd for one molecule.

This assay deals with FMC63 scFv, His Tag. Briefly: SPR; FMC63 scFv as analyte at 125, 62.5, 31.25, 15.625, 7.813, 3.906 and 1.953 nM. A general note: SPR reads the build-up and loss of mass on a sensor chip optically.

B1: Y45克隆号抗体 (antibody, V domains shown)
VH: EVKLLESGGGLVQPGGSLKLSCAASGDFRYFQWMSWVRQAPGKGLEWIGEIDNLDSITKYTPSLKDKFIISRDNAKNTLYLQMRKVRSEDTALYYCRAYRYMYDPRWGQGTSVTVSS
VL: DIVLTQSPASLAVSLGQRATISCRASKVSSTSSGYYMHWYQQKPGQPPKLLIYALNNLESGVPARFSGSGSGTDFTLNVHPVEEEDAATYYCQTFYGSELPFGSGTKLEIK
As for B1, the equilibrium dissociation constant (Kd) turned out to be 1.08 nM.

The term Kd denotes the constant that tells how readily two partners part at equilibrium. A higher Kd goes with lower affinity.
